PMC2864300, “Regulation of NOXO1 Activity through Reversible Interactions with p22^phox and NOXA1” (PLoS ONE, 2010)

Assays:
[1] = target: human NOXO1 tandem SH3 domains (SH3AB) (human); assay: ITC; data not shown; peptides of the human NOXO1 C-terminal tail titrated against human NOXO1 SH3 domains
[2] = target: human NOXO1 tandem SH3 domains (SH3AB) (human); assay: ITC; MicroCal VP-ITC, 18°C; 150 mM NaCl, 1 mM DTT, 50 mM HEPES pH 7.4; typically 20–40 µM protein in the cell, 200–300 µM ligand injected; single-site binding model; averaged over three to five experiments

TAPPPTVPTRPSPGAIQSRCCTVTRRALE [peptideA (amino acids 319–347 of human NOXO1)]
Kd [1]: 50 µM

TAPPPTVPTRPS [shorter version of peptideA, which only contains the proline rich region]
Kd [2]: 50 µM
